{"source": "the NTF2 design screens of Basanta et al. (2020)", "experiment": "protease stability score; higher = more stable; yeast display proteolysis, trypsin and chymotrypsin;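 further: relative to predicted unfolded state with 0 unfolded-like and 1 meaning tenfold more protease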"}
{"sequence": "SEEDHHADEFRRIMYEIFETGDEKKFEDLFDPNVRWEQGDKHTHGMETATRDMLDLERRLGVDHIKYKDIRFELVDGRMIVYIIGTIYINGRPRHLHIEIIVSKINGRWFVENVRMKVE", "values": [{"measurement": "protease stability score", "value": 2.14}]}
{"sequence": "SEEDHHTERIVEEFIEAERTGDEDHLLELIDPHVRVDVNGVELHGREELYKFWRDWLTKFKNARIEIRHVNNQGDKSTVLVLRRINGVDLETHVKWVFVNGKLKSITIRLN", "values": [{"measurement": "protease stability score", "value": 1.49}]}
{"sequence": "SEEDHIMEELARIFWKLMTTGDFDTLEHLMDPHTRLEVNGRIFVGREASEELWRFYKNVRTEIEDVKAQGDKNHIKGHQKFNGREKTVHIHLTIVDGRLKSMSIKEH", "values": [{"measurement": "protease stability score", "value": 2.23}]}
{"sequence": "SEEDHLVDLMLKFLIESLKTGDEKTLRKLVDPNDKVVFNGRELHGRRALEYWLERFDHAHRFHIEDFTVQGDYMIVRVKLDGHVDGVRMETTIHLILVKYDGRWFVKMTIFN", "values": [{"measurement": "protease stability score", "value": 1.26}]}
{"sequence": "SEEDHRAKHIFHLFLHWFLTGDWEIFEHYADPRMRTLVNGKNFHGWEETVKFLDHIFKELRVHHIHVDHLEVQGDKYHFEVRVDREYNGRREITIMYIHFLIFNGKVKSILIIIH", "values": [{"measurement": "protease stability score", "value": 1.08}]}
{"sequence": "SEEDKATEKFLRELSEWHRTGDEEHFVRNLDPHVRVDIDGVELHGREEVERHLRKRWEKLGVDRFDSELRFKHIHVQGDKIEIHIRIILDINGVHRNVDVEIIALKVNGRWLIQSYHIR", "values": [{"measurement": "protease stability score", "value": 2.24}]}
{"sequence": "SEEDKEFEDLIKFWIHLLETGDFDTLRDLADPHVRVTIDGRDLHGREILLTFWEKVKNIKLDLKSIRVINGVVIMHGDTNFDGKRSHVELHIKKINGRWYITEFRIE", "values": [{"measurement": "protease stability score", "value": 2.25}]}
{"sequence": "SEEDKELEEFFRMYIHAARTGDWHTLTRLLDPNVLLMVNGRETHGMDKVKELLKRLGVDYINIEHVEVHRMDFQGDKLRMDTTEDGFVNGVRTHRSVHHILVKVDGRWYIESVHIK", "values": [{"measurement": "protease stability score", "value": 2.02}]}
{"sequence": "SEEDKEREEWLHLLKHSLETGDEQALSRMADPHVRLVVGDKELHGREDYERHWREFLERFPNVTTEVRLRRVEIYGDKIRIDTELRIHVGDKHHSLRVDLIMVKVDGRWFMKEIRIK", "values": [{"measurement": "protease stability score", "value": 1.21}]}
{"sequence": "SEEDKESEEAFKIAKELLETGDEDLHKHLFDPNARLVVGDKHHHGRELLVKFWSDFGIDHIEIHDIKLVNGRLDTDTTVRFNGRTLKMRIIIIKVNGKWEIKSMTVH", "values": [{"measurement": "protease stability score", "value": 0.667}]}
{"sequence": "SEEDKETKIALEISEKILETGDWEELSKNLDPDARFTFENRTHVGREEVSELLLKLIKEMGVNHVNIEDNDLQGDKIILIVEVRVGDKRVNLEIIAVKVNGRWRIHSIHERHE", "values": [{"measurement": "protease stability score", "value": 0.884}]}
{"sequence": "SEEDKEVKFFMERLNHLLLTGDEELIMEMLDPNARMTINGVDTHGRETLSKLWTDKLRHLRLKQIHIHDWRSINGRADNKGHERGFVGDKEDNWESELLFVFVNGRLKSISVHLR", "values": [{"measurement": "protease stability score", "value": 1.21}]}
{"sequence": "SEEDKHASKLADLVVEMWMTGDEEKLRHLADPDVKLHIEFNGVNRNHHGRDVMIEVMQRIREEIRIHDIKIHNWHTINGRWHIDSIVDGKFNGRRHETRTEVILEVIDGRIKVISFIFQ", "values": [{"measurement": "protease stability score", "value": 1.07}]}
{"sequence": "SEEDKHHETLARLIIEALTTGDEESLMHLMDPNARIQIGDKDNHGWRSLHIHHRELGIDHKEIRVREVRFVNGKIHIDSQVHFHFNGVTFDVRTHIILVVINGKLTKMWVIIG", "values": [{"measurement": "protease stability score", "value": 0.363}]}
{"sequence": "SEEDKHLLHLMHLFLHWFDTGDEEQFWHYADPHVRMSVNGVHLHGRETVMRQISRTLKEWRVDDRRIHDSHTVNGVVHQDGRVDGEFNGKRDTREYYLIIVIFNGRIHSVEIHIK", "values": [{"measurement": "protease stability score", "value": 1.46}]}
{"sequence": "SEEDKHLRKMAQDILEWLFTGNWKDFFDNLDPNYRVEWNGKERIGRDLTRRMLETIRREMRLHDIKIHHFTAIDGVIHIDGSEYIHVDGVTTEVKTHIHIVIFNGRIKRIEFHDH", "values": [{"measurement": "protease stability score", "value": 1.48}]}
{"sequence": "SEEDKHTEKLVRELWHAFETGDEDFILDMADPDVKFDFNGRKNVGREEFSRIWEDIFRRFKNIQLELTSITFQGHKVHTKGRTRINGKHHELIVHVVIVNGRLESLTIIIN", "values": [{"measurement": "protease stability score", "value": 1.49}]}
{"sequence": "SEEDKIALEILEMTKKLWDTGDEELMVDLVDPHVKVDWDGRERHGREAVEFFFRSIIEKVKNLTIRLTDFRVINGRIEIDSTLKFNGKTLEVRIISTKIDGQWYIESISFR", "values": [{"measurement": "protease stability score", "value": 1.38}]}
{"sequence": "SEEDKIVHEMMERLLKNWQTGNWEEIEKLFDPNAKLLVDGVELHGREEMSRHWEEKLNQIDHLRIRIRDYRYFDGRLRVEGEEIHYVNGKDITREVEIRLQVINGVVESIEFHRR", "values": [{"measurement": "protease stability score", "value": 1.42}]}
{"sequence": "SEEDKKVEEAIKYLYSFLKTGDEHEVEDMIDPHVRIDVNGKNVHGWEEAFRWTVEHMKKLGVERFEVEIKDVHKQGNYVRVLGHSRFNGKEYEIEIILIKVNGRWIIKSHRIH", "values": [{"measurement": "protease stability score", "value": 1.64}]}
